According to patent US6790630 (NEW ENGLAND BIOLABS, dated 2004):

B1: Ov33, native 31-33 kDa antigen of Onchocerca volvulus adult worms (other)
chain: GVVKRYNKRFAGFNVAGIGGNAGCVVVDNKLFANSFFLRELTTEEQRELAQYIEDSNRYKEEVKESLEERRKGWQLARDGKEDSKVLSALAEKKLPKPPKKPSFCSAGDTTQYYFDGCMVQNDKIYVGRAYVRDLTPDEVTQLKTFDAKMTAYQKYLSSTIQKQVDSLFGEKSNLFNLFADTRTEATSQASDDATAGATTTQAPVEAPEPPHFCVAIY
B2: DiT33, native 31-33 kDa glycoprotein of Dirofilaria immitis (other)
chain: SVINRHNKRFAGFSVAGIGGTAGCVVVDNKLFANSFYLRDLTTEEQRELAQYVEDSNQYKEEVKTSLEERRKGWQLARHGEKDAKVLSSLAEKKFPKPPKKPSFCSAGDTTQYYFDGCMVQNNKIYVGRMYVRDLTSDEINQLKTFDAKMTAYQKYLSSSIQQQVDSLFGDKSNLFNLFTDTRHETSSQPSDATTISTTTQAPVEPPETPHFCIAIY
notes: also called doublet of 31 and 33 kDa; D. immitis homolog of Ov33

Columns and labels:
[1] = target: B2; test: lectin blot, biotinylated lectin 20 µg/ml
[2] = target: B1; test: lectin blot, biotinylated lectin 20 µg/ml
[3] = target: T1, Concanavilin A (Con-A), biotinylated (UniProt P02866 30-281); test: lectin blot of affinity purified antigen
T1 construct: Lectin

[4] = target: T2, Erythrina cristagalli lectin (ECL), biotinylated (Erythrina cristagalli, UniProt P83410 1-239); test: lectin blot of affinity purified antigen
T2 construct: Lectin
T2 sequence: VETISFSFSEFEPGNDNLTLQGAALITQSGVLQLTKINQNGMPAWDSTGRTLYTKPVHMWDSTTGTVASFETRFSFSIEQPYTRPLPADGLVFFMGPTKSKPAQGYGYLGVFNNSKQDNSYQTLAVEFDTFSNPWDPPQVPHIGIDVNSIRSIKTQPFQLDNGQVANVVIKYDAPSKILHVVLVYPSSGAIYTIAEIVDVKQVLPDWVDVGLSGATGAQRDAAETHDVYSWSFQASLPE

[5] = target: T3, Peanut agglutinin (PNA), biotinylated (UniProt P02872 24-259); test: lectin blot of affinity purified antigen
T3 construct: Lectin
T3 sequence: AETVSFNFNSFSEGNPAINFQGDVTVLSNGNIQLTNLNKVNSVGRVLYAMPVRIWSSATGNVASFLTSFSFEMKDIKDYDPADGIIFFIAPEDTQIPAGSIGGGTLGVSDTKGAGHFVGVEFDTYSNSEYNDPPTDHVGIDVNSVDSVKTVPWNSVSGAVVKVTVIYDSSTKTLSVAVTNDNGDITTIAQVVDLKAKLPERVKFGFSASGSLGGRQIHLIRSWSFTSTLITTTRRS

[6] = target: T4, Phaseolus vulgaris erthroagglutinin (PHA-E), biotinylated (Phaseolus vulgaris, UniProt P05088 22-275); test: lectin blot of affinity purified antigen
T4 construct: Lectin

[7] = target: T5, Soybean agglutinin (SBA), biotinylated (UniProt P05046 33-285); test: lectin blot of affinity purified antigen
T5 construct: Lectin

[8] = target: B2; test: lectin blot of affinity purified antigen
[9] = target: B1; test: lectin blot of affinity purified antigen

T5 sequence (P05046 33-285 limits assumed): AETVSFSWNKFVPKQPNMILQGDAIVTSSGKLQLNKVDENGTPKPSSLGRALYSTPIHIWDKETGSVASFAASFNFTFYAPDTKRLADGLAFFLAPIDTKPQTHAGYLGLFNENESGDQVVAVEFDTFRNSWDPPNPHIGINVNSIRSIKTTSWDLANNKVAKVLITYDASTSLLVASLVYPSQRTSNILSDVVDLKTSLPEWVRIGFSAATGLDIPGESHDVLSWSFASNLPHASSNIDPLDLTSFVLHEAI

| Binder | binding result [1] | binding result [2] | binding result [3] | binding result [4] | binding result [5] | binding result [6] | binding result [7] | binding result [8] | binding result [9] |
| --- | --- | --- | --- | --- | --- | --- | --- | --- | --- |
| Artpocarpus integrifolia (jacalin), biotinylated (other) chain 1: GKAFDDGAFTGIREINLSYNKETAIGDFQVVYDLNGSPYVGQNHKSFITGFTPVKISLDFPSEYIMEVSGYTGNVSGYVVVRSLTFKTNKKTYGPYGVTSGTPFNLPIENGLIVGFKGSIGYWLDYFSMYLSL chain 2: NEQSGKSQTVIVGSWGAKVS | binds | binds | – | – | – | – | – | – | – |
| B1 | – | – | no binding (tested: 20 µg/ml) | no binding (tested: 20 µg/ml) | no binding (tested: 20 µg/ml) | no binding (tested: 20 µg/ml) | no binding (tested: 20 µg/ml) | – | – |
| B2 | – | – | no binding (tested: 20 µg/ml) | no binding (tested: 20 µg/ml) | no binding (tested: 20 µg/ml) | no binding (tested: 20 µg/ml) | no binding (tested: 20 µg/ml) | – | – |
| Wheat germ agglutinin (WGA), biotinylated (other, Lectin) QRCGEQGSNMECPNNLCCSQYGYCGMGGDYCGKGCQNGACWTSKRCGSQAGGATCTNNQCCSQYGYCGFGAEYCGAGCQGGPCRADIKCGSQAGGKLCPNNLCCSQWGFCGLGSEFCGGGCQSGACSTDKPCGKDAGGRVCTNNYCCSKWGSCGIGPGYCGAGCQSGGCDG | – | – | – | – | – | – | – | no binding (tested: 20 µg/ml) | no binding (tested: 20 µg/ml) |
